Source: patent publication US20240010735A1 (EISAI R AND D MANAGEMENT, published 2024)

Tests used:
Experiment in all cases: ELISA: SEAP-His proteins (1 nM) captured on anti-6-His antibody, antibody B 10 µg/mL with human IgG 100 µg/mL, HRP anti-human IgG, OD450 as % of human EphA4-SEAP-His
[1] = target: T1, human EphA2 extracellular region-SEAP-His protein (human, UniProt P29317 24-537)
T1 construct: extracellular domain; also called Eph receptor extracellular region-SEAP-His protein; not shown: secretory alkaline phosphatase (SEAP); histidine tag
T1 sequence (P29317 24-537): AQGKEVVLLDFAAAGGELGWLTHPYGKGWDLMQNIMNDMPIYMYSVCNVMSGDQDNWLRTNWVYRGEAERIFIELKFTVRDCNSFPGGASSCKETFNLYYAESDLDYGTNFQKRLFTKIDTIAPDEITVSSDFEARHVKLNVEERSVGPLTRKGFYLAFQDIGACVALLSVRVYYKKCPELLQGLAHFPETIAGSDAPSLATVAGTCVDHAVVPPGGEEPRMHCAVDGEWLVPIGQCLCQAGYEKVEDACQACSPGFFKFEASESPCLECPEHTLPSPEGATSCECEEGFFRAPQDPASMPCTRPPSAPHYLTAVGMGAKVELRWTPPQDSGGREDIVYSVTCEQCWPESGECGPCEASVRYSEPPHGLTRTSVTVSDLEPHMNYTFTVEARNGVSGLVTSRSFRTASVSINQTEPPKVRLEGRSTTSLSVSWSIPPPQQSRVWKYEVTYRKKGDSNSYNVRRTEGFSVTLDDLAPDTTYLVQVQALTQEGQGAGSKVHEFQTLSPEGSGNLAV

[2] = target: T2, human EphA8 extracellular region-SEAP-His protein (human, UniProt P29322 28-542)
T2 construct: extracellular domain; also called Eph receptor extracellular region-SEAP-His protein; not shown: secretory alkaline phosphatase (SEAP); histidine tag
T2 sequence (looked up): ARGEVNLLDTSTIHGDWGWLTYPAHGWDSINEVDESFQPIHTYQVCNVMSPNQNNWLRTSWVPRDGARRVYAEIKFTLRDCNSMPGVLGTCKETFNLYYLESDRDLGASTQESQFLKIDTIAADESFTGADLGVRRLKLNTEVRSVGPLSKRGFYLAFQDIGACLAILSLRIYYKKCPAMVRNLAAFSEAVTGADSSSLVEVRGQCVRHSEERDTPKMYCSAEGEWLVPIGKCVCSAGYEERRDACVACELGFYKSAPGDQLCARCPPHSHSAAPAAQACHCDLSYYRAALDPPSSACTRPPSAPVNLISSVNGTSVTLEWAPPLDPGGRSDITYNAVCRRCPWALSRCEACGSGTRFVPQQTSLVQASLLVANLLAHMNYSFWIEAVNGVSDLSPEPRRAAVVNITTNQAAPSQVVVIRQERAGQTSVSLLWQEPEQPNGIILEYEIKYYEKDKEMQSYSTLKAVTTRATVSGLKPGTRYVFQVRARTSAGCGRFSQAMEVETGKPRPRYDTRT

[3] = target: T3, human EphA10 extracellular region-SEAP-His protein (human, UniProt Q5JZY3 34-565)
T3 construct: extracellular domain; also called Eph receptor extracellular region-SEAP-His protein; not shown: secretory alkaline phosphatase (SEAP); histidine tag
T3 sequence (looked up): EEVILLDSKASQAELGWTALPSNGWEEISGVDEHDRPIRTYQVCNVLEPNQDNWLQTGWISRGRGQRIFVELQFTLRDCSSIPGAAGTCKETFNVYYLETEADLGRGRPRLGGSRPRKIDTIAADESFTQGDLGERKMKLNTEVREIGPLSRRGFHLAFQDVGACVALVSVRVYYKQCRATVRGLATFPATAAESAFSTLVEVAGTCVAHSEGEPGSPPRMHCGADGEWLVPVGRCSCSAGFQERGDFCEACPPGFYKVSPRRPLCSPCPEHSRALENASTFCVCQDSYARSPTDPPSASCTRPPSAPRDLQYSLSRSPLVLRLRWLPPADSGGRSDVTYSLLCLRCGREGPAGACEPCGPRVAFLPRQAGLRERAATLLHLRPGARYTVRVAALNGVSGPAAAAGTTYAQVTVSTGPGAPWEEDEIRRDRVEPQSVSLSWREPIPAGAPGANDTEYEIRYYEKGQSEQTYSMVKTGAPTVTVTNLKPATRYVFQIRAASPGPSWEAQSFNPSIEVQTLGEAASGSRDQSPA

[4] = target: T4, human EphB1 extracellular region-SEAP-His protein (human, UniProt P54762 18-540)
T4 construct: extracellular domain; also called Eph receptor extracellular region-SEAP-His protein; not shown: secretory alkaline phosphatase (SEAP); histidine tag
T4 sequence (looked up): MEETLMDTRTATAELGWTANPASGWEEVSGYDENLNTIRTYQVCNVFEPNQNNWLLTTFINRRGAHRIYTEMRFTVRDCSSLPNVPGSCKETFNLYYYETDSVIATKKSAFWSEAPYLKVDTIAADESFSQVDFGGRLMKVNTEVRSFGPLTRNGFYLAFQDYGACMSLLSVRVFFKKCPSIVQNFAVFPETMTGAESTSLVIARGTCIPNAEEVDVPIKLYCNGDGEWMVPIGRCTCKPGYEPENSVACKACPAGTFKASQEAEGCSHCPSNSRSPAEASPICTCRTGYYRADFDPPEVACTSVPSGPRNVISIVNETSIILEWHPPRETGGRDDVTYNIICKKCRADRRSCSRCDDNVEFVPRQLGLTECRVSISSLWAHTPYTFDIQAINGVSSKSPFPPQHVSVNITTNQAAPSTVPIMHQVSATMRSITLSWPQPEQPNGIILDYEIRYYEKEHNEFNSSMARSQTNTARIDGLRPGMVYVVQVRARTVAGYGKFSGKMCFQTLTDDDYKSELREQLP

[5] = target: T5, human EphB3 extracellular region-SEAP-His protein (human, UniProt P54753 34-559)
T5 construct: extracellular domain; also called Eph receptor extracellular region-SEAP-His protein; not shown: secretory alkaline phosphatase (SEAP); histidine tag
T5 sequence (looked up): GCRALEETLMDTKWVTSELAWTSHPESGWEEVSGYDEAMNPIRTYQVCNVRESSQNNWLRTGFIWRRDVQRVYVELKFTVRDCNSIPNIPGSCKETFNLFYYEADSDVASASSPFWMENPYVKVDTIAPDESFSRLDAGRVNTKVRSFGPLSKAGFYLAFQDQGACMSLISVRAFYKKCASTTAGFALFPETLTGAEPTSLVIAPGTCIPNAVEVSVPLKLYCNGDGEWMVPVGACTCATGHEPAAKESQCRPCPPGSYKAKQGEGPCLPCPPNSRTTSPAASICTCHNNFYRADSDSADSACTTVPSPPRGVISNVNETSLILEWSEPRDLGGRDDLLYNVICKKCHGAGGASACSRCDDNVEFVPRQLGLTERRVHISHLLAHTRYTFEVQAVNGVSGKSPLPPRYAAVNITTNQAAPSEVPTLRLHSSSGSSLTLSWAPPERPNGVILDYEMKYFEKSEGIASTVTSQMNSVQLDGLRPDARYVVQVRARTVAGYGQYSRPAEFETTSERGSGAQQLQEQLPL

Measured: binding result

B1: humanized anti-EphA4 monoclonal antibody (antibody B) (antibody, human IgG2, V domains shown)
VH: QVQLVESGGGVVQPGRSLRLSCAVSGFSLTRFGVHWVRQAPGKGLEWVAVIWRGGSTDYNAAFMSRLTISKDNSKNTVYLQMNSLRAEDTAVYYCAKESLFGVYYDYGYYSMDYWGQGTTVTVSS
VL: DIQMTQSPSSLSASVGDRVTITCRASQEISGYLSWLQQKPGKAPKRLIYAASTLDSGVPSRFSGSRSGTEYTLTISSLQPEDFATYYCLQYASYPLTFGGGTKVEIKR
notes: expressed in Expi293F cells; also called humanized antibody of antibody A; HK2-42 / L1-8
no binding (tested: 10 µg/mL): all assays above
